Experiment [1] deals with T1, tyrosinase peptide on HLA-A*02:01 (human).
T1 peptide: YMDGTMSQV
Briefly: activation reporter or marker.

Experiment [2] has as its target T2, EBV BRLF1 peptide on HLA-A*02:01 (human).
T2 peptide: YVLDHLIVV
Briefly: multimer staining.

B1: WT TCR AV8.1-CAVKDTDKLIF-AJ34 BV24.1-CATSDWDDSTGELFF-BJ2.2 (TCR)
alpha AV8.1 AJ34 CDR3: CAVKDTDKLIF
beta BV24.1 BJ2.2 CDR3: CATSDWDDSTGELFF
B1: the binding result was “no recognition” in experiment [1] and “recognises” in experiment [2].

(Values after paper PMC6901265 (2019).)
